# Patent publication US20020142976A1, “Materials and methods for modulating differentiation” (ICOS Corporation, priority 1998, published 2002)
# Molecular target: T1, ATR (Mus musculus, UniProt Q9JKK8)
# T1 construct: from tissue; host or cells: mouse testes extract
# Assay: MyoD phosphorylation (ATR kinase) assay with MyoD-derived peptide substrates
# Type: biochemical
# Details: in vitro kinase assay, 32P-γATP, room temperature 40 minutes
# Experimental: ATR was captured on a 96 well plate previously coated first with goat anti-mouse antibodies (Pierce) and secondly with anti-ATR antibody 224C. A hybridoma which secretes antibody 224C was deposited with the American Type Culture Collection (ATCC), 12301 Parklawn Drive, Rockville, Md. 20852 on Nov. 7, 1996 and assigned ATCC Accession Nos. HB 12233. The 224C antibody was added to the plate at a concentration of […] in BT blocking buffer and incubated for at least 30 hours at 4° C. The wells were washed with TBS containing 0.05% Tween® 20 and mouse testes extract (prepared as described in Example 6 of WO 97/18323 published May 22, 1997 from International Application No. PCT/US96/19337, incorporated herein by reference) was added. […]
# The supernatant, containing the ^32P-labeled peptide was transferred to P81 phosphocellulose paper, the paper was washed three times with 100 mM phosphoric acid (to remove unincorporated label) and once with ethanol, and Cerenkov radiation (in counts per minute, cpm) was counted in a scintillation counter.
# MyoD is a 319 amino acid transcription factor that is often phosphorylated in cells. As described in Example 6 (of WO 97/18323), it has been determined that ATR phosphorylates MyoD in in vitro kinase assays and the target serine residue in myoD has been identified using a MyoD deletion peptide, B-HLH containing amino acids 102 through 165. […]
# T1 sequence (Q9JKK8 whole entry): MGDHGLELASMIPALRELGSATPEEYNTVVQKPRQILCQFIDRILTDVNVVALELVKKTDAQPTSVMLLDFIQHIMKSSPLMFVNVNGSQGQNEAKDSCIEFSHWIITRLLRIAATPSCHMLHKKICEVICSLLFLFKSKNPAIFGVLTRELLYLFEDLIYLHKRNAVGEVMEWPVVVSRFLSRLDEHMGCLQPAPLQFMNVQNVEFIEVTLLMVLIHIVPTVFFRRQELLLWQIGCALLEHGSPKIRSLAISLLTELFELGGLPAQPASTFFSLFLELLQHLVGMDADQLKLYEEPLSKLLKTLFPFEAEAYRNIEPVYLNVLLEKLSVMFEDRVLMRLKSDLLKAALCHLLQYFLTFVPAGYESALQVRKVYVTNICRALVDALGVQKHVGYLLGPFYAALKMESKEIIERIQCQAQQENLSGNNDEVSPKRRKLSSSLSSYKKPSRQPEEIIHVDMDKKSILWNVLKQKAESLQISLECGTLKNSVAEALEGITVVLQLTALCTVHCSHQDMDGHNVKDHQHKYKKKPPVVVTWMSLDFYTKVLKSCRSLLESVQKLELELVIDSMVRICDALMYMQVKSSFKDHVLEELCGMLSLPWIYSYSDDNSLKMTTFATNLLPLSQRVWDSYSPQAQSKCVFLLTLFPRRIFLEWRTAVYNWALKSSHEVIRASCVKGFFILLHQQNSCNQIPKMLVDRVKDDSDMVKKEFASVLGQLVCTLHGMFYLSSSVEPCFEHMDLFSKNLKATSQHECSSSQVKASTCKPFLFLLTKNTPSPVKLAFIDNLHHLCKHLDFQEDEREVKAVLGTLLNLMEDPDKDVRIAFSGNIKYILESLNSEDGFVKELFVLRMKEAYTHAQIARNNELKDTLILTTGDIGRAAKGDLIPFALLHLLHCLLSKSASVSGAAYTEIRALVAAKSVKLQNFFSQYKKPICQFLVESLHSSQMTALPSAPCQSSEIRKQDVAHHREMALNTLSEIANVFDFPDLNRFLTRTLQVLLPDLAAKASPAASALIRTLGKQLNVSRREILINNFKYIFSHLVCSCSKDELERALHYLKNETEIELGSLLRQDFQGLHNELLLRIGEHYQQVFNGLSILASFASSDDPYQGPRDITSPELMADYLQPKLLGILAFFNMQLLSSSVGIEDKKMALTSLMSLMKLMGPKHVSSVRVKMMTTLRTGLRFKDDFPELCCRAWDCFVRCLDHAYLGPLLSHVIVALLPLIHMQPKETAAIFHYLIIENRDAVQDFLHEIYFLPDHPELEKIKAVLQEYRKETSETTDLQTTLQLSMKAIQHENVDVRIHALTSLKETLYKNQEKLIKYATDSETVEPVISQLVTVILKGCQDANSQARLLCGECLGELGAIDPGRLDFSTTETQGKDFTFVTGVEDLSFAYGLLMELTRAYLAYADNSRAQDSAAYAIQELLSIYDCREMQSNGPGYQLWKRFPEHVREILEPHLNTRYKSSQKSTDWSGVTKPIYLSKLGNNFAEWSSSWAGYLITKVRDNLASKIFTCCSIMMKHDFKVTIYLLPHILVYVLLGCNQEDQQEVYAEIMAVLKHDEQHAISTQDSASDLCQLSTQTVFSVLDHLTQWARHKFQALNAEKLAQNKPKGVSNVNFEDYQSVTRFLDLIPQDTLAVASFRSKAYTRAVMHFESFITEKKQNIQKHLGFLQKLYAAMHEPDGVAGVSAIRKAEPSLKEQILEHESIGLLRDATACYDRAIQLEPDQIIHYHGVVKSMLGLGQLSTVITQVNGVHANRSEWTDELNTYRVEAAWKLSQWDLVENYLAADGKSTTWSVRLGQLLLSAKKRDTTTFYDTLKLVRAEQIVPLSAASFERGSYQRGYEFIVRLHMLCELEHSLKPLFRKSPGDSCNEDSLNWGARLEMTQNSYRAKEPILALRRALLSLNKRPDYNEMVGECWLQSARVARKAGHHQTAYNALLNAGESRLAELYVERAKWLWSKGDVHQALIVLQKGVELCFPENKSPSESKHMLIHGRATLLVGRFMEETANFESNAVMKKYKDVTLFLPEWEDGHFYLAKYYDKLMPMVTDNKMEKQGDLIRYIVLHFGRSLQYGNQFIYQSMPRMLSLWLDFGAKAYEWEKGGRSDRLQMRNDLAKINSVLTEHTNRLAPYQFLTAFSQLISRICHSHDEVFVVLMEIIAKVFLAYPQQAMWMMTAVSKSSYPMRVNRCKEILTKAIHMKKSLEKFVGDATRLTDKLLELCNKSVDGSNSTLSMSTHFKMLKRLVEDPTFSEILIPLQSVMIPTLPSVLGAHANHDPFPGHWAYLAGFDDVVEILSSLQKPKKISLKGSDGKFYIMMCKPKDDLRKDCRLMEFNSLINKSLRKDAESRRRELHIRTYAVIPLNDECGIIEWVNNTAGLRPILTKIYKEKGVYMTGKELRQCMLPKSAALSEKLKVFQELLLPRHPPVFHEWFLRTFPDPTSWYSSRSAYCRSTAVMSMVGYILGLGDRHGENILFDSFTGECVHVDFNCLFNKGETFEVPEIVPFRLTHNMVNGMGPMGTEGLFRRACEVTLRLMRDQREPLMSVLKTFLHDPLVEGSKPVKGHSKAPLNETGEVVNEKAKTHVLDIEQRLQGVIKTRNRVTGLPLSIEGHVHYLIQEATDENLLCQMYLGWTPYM
# T1 sequence (Q8BMG1 whole entry partner): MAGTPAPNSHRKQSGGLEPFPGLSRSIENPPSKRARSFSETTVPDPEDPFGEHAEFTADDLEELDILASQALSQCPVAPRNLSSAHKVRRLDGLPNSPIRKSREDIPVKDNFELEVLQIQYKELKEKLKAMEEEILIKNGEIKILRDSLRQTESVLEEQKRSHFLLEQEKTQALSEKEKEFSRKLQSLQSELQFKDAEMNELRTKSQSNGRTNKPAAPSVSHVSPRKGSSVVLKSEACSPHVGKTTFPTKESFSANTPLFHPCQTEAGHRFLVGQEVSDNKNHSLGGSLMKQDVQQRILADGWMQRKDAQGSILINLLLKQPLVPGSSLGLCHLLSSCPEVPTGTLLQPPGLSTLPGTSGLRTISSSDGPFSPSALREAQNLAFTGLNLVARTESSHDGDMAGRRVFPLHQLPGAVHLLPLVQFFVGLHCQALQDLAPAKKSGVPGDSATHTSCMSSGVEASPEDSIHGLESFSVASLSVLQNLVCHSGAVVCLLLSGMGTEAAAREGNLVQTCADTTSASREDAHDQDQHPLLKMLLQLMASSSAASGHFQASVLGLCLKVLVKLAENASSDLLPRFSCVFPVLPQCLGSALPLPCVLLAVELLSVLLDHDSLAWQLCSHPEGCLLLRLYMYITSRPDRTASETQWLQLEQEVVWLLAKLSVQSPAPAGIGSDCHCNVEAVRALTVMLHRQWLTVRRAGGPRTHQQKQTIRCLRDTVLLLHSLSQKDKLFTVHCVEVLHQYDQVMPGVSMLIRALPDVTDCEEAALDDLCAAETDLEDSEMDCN
substance,measurement,value
NH2-Leu-Lys-Arg-Cys-Thr-Ser-Ser-Asn-Pro-Asn-Gln-Arg-Leu-Pro-Lys-COOH (H-LKRCTSSNPNQRLPK-OH) [IDH22],phosphorylation of peptide by ATR,phosphorylated
